In publication PMC6582153 one finds Kd data, which are given here for one substance.

Common to all, as to test: MST; 2-hep HMM with C-terminal eGFP (fluorescence followed) titrated with increasing concentrations of unlabeled proximal S2; 23 °C; 10 mM imidazole pH 7.5, 100 mM KCl, 1 mM EDTA, 2 mM MgCl2, 1 mM DTT, 500 mM ADP, 0.05% Tween; MST power 60; isotherms fitted with the Hill equation
Assay [1] has as its target R719W recombinant human β-cardiac myosin 2-hep HMM (UniProt P08590).
Assay [2] deals with WT recombinant human β-cardiac myosin 2-hep HMM (UniProt P08590).
Assay [3] has as its target D382Y recombinant human β-cardiac myosin 2-hep HMM (UniProt P08590).

Regarding “proximal S2 (amino acids 839–968) of human β-cardiac myosin (from UniProt P12883 839-968) (domain or fragment)”, the values for the Kd in assay [1], in assay [2] and in assay [3] were 58 µM, 37 µM and 45 µM, respectively.

As usually defined, the Kd is a measure of binding affinity in units of concentration.
